For data set [1], the target named is T1, HGF (hepatocyte growth factor/scatter factor) (UniProt P14210;P14210 P14210:32-494,P14210:495-728). In words: filter; 40N8 hitchhiker. Particulars: tags: R&D Systems. On the procedure:
(§1) In binding reactions, RNA concentrations were kept as low as possible—between 1 and 20 pM—to ensure equilibrium in conditions of protein excess. Oligonucleotides were incubated for 15 minutes at 37° C. with varying amounts of the protein in 43 µl of the binding buffer. Thirty-two microliters of each binding mixture placed on pre-wet 0.45 µm nitrocellulose filters under suction. Each well was immediately washed with 0.5 ml binding buffer. The amount of radioactivity retained on the filters was quantitated by imaging. The radioactivity that bound to filters in the absence of protein was used for background correction. The percentage of input oligonucleotide retained on each filter spot was plotted against the corresponding log protein concentration. The nonlinear least square method was used to obtain the dissociation constant (K_d; reference Jellinek, Lynott et al. 1993, Proc. Natl. Acad. Sci. USA. 90:11227–31).

The target in data set [2] is T1, HGF (hepatocyte growth factor/scatter …). Nature of the data set: filter; no significant binding retained. Particulars: tags: R&D Systems. As to the method:
as §1

Data set [3] shares this target. In words: filter; HBSMC, 37C; SEQ 43 in listing has a deviating 3' end. As to conditions: tags: R&D Systems. On the procedure:
as §1

Data set [4] deals with c-met extracellular domain-IgG1-His6 (Homo sapiens, UniProt P08581 P08581:25-932). Nature of the data set: filter; biphasic; lower affinity Kd ~5 nM. Particulars: chain copies: 2.
Data set [5] deals with T1, HGF (hepatocyte growth factor/scatter …). In words: filter; HBSMC, 37C; SEQ 108 in listing duplicates SEQ 107, table sequence used. Particulars: tags: R&D Systems. On the procedure:
as §1

Data set [6] shares this target. Nature of the data set: filter; 36mer; PEGylated form inhibits HGF in cells. As to conditions: tags: R&D Systems. As to the method: as §1
Data set [7] shares this target. In words: filter; one or two 5' G; no inhibition of HGF in cells without PEG. As to conditions: tags: R&D Systems. As to the method: as §1
Data set [8] shares this target. Nature of the data set: filter; HBSMC, 37C; worse than random pool. As to conditions: tags: R&D Systems. As to the method:
as §1

Data set [9] shares this target. Nature of the data set: filter; HBSMC, 37C; table cites SEQ 15, which is a template in the listing. As to conditions: tags: R&D Systems. On the procedure: as §1

T1 sequence (P14210 32-494, chain 1 of 2): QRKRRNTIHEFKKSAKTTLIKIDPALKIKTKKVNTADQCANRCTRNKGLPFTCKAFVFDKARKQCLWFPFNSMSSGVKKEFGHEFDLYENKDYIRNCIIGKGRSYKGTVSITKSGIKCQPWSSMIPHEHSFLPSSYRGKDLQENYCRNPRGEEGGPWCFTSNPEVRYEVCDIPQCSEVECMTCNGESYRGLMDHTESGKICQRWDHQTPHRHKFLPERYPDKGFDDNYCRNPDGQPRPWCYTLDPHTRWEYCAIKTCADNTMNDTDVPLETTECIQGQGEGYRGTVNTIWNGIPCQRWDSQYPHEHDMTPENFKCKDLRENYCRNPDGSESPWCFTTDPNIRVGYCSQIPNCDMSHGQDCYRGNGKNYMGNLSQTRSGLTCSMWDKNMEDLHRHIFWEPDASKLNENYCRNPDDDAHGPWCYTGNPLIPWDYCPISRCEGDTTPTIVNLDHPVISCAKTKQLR
T1 sequence (P14210 495-728, chain 2 of 2): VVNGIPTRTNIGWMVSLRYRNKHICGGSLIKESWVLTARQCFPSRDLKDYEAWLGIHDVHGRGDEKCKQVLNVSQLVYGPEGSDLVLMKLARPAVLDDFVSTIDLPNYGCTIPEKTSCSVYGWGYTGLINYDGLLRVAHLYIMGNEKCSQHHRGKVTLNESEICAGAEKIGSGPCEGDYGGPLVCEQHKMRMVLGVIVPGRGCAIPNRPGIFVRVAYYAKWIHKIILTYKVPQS
Sequence of c-met extracellular domain-IgG1-His6 (P08581 25-932, one chain of several): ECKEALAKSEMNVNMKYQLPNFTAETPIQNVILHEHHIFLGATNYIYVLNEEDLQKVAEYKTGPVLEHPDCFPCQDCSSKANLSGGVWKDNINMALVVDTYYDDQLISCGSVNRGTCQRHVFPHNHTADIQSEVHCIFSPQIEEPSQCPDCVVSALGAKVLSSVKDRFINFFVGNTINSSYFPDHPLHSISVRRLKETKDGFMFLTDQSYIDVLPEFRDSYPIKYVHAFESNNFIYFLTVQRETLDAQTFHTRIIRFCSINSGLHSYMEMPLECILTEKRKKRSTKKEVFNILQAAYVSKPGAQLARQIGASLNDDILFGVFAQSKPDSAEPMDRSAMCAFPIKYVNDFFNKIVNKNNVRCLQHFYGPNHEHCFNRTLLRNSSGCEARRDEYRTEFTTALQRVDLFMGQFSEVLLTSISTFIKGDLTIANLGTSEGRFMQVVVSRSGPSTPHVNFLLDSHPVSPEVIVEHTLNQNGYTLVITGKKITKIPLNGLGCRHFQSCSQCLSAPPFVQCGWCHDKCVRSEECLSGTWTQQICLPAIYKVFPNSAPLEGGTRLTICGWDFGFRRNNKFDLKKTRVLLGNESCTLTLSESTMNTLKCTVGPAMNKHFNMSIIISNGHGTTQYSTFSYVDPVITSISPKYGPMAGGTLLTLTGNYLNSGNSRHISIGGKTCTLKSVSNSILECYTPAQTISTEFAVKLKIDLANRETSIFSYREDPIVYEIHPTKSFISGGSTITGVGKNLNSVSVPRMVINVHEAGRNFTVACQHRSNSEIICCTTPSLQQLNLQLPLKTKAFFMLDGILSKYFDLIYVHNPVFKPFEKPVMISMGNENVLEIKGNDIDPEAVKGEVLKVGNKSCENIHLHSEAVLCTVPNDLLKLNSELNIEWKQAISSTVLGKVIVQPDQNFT

B1: 10-68 (ssRNA)
RNA: GGGAGAUAAGAAUAAACGCUCAACGCGGGAUUCUCUGAGGACGAGGCACGUGUGGGUAAUUCGUUCGACAGGAGGCUCACAACAGGC
modifications: 2'-F pyrimidines
For orientation: Kd means the equilibrium constant for the complex coming apart. Read a high Kd as a looser complex. In the case of B1, the Kd in data set [1] is 1 nM.

B2: 8-17 28mer (ssRNA)
RNA: GGACGAUGCGGGCGGCUCGAUGUCGUCU
modifications: 2'-F pyrimidines
For B2, the binding result in data set [2] is “no binding”.

B3: 8-17 38mer (ssRNA)
RNA: GGGAGGACGAUGCGGGCGGCUCGAUGUCGUCUUAUCCC
modifications: 2'-F pyrimidines
Regarding B3, the binding result in [2] is “no binding”.

B4: 11-106 (ssRNA)
RNA: GGGAGGACGAUGCGGCGAUGAUGCCUGUUUAUGUCGAUGUCCCCCCAGACGACUCGCCCGA
modifications: 2'-F pyrimidines
Take B4: the Kd in data set [3] was 0.12 nM.

B5: 7c-1 (ssRNA)
RNA: GGGAGGACGAUGCGGUUUGACUAUGUCUGACGGGUCUGUGGUCAAUUCCGCCCCCAGACGACUCGCCCGA
modifications: 2'-F pyrimidines
Molecule B5 had a Kd in [4] of around 0.05 nM.

B6: 10-17 (ssRNA)
RNA: GGGAGAUAAGAAUAAACGCUCAAAACCCUGUUGGCGUGACGUCCCGACCCUCCUUCGACAGGAGGCUCACAACAGGC
modifications: 2'-F pyrimidines
Take B6: the equilibrium dissociation constant (Kd) in data set [5] worked out at 0.56 nM.

B7: 10-4 (ssRNA)
RNA: GGGAGAUAAGAAUAAACGCUCAAUUGGGUCGGGACUCGAAAGGAUUUGAUAGGAUACAUGAAUUUCGACAGGAGGCUCACAACAGGC
modifications: 2'-F pyrimidines
As to B7, in data set [1], the Kd was found to be 0.61 nM.

B8: NX22354 (36mer of 8-102) (ssRNA)
RNA: GGACGAUGCGGCGAGUGCCUGUUUAUGUCAUCGUCC
modifications: 2'-F pyrimidines; NX22354 formulation carries 5'-40K PEG and 3'-dT cap
B8 returned a Kd in data set [6] of 0.1 nM.

B9: Tr51 (ssRNA)
RNA: GGAAUCACAGGAAUCAACUUCUAUUCCCGCCCCA
modifications: 2'-F pyrimidines
As to B9, binding in data set [7] was put at a Kd of 0.06 nM.

B10: 10-67 (ssRNA)
RNA: GGGAGAUAAGAAUAAACGCUCAAUCGGGCUUGGAUGUGGACGUGUAUUUCUAGCUGUGUACGCUUCGACAGGAGGCUCACAACAGGC
modifications: 2'-F pyrimidines
Take B10: the affinity in [1], expressed as Kd, was 0.64 nM.

B11: 8-151 (ssRNA)
RNA: GGGAGGACGAUGCGGAGGACUAAUCCCUAAGGAAUAGCUUGCCCGCAGACGACUCGCCCGA
modifications: 2'-F pyrimidines
As to B11, the Kd in [8] was determined as 8 nM.

B12: 8-117 (ssRNA)
RNA: GGGAGGACGAUGCGGUCCCAAGUUUCAGGGCGUUUCUUCCUCGUCCAGACGACUCGCCCGA
modifications: 2'-F pyrimidines
Turning to B12, in data set [9], binding was characterised by a dissociation constant (Kd) of 0.13 nM.

Source of the values: patent US6344321, “Nucleic acid ligands which bind to hepatocyte growth factor/scatter factor (HGF/SF) or its receptor c-met” (Gilead Sciences, Inc.).
